# Results as given in patent US20180037631A1 (Bristol-Myers Squibb, published 2018).
# Biological target: T1, EGFR on the surface of human tumour cells (A431, H292) (human, UniProt P00533 25-1210)
# Experiment: cell-based or functional assay
row,"% inhibition of EGFR phosphorylation at 100 nM binder, cell-based assay [%]",Binder
1,77.3,E42 (designed binder) 10Fn3 domain: MGVSDVPRDLEVVAATPTSLLISWVVPNWMYQYYRITYGETGGNSPVQEFTVPGMLETATISGLKPGVDYTITVYAVTDYYNPTTYEYTYFTYPISINYRTEIDKPSQ
2,80.4,E45 (designed binder) 10Fn3 domain: MGVSDVPRDLEVVAATPTSLLISWQVPRPMYQYYRITYGEKGGNSPVQEFTVPHDLRTATISGLKPGVDYTITVYAVTDYYDPTSNLYNYNQTPISINYRTEIDKPSQ
3,89.6,E40 (designed binder) 10Fn3 domain: MGVSDVPRDLEVVAATPTSLLISWVLGRRVYQYYRITYGETGGNSPVQEFTVPGAVYTATISGLKPGVDYTITVYAVTDYFNPATHEYQYELTPISINYRTEIDKPSQ
4,86,E32 (designed binder) 10Fn3 domain: MGVSDVPRDLEVVAATPTSLLISWVSLVGFYQYYRITYGETGGNSPVQEFTVPGGVHTATISGLKPGVDYTITVYAVTDYKPHADGPHTYHESPISINYRTEIDKPSQ
5,81.3,E36 (designed binder) 10Fn3 domain: MGVSDVPRDLEVVAATPTSLLISWESGSRTYQYYRITYGETGGNSPVQEFTVPGGVHTATISGLKTGVDYTITVYAVTDYKPHADGPHTYHEYPISINYRTEIDKPSQ
6,76.7,E39 (designed binder) 10Fn3 domain: MGVSDVPRDLEVVAATPTSLLISWQVSAFRYQYYRITYGETGGNSPVQEFTVPGMVSTATISGLKPGVDYTITVYAVTDYKPHADGPHTYSEYPISINYRTEIDKPSQ
7,80.4,E34 (designed binder) 10Fn3 domain: MGVSDVPRDLEVVAATPTSLLISWLAPFWRYQYYRITYGETGGNSPVQEFTVPGGVRTATISGLKPGVDYTITVYAVTDYKPHADGPHTYHESPISINYRTEIDKPSQ
8,75,E43 (designed binder) 10Fn3 domain: MGVSDVPRDLEVVAATPTSLLISWSGGFMRYQYYRITYGETGGNSPVQEFTVPGQVYTATISGLKPGVDYTITVYAVTDYKPHADGPHTYHESPISINYRTEIDKPSQ
9,75.2,E41 (designed binder) 10Fn3 domain: MGVSDVPRDLEVVAATPTSLLISWTPPNSGHNYYRITYGETGGNSPVQEFTVPHDLTTATISGLKPGVDYTITVYAVTDYYNPNTYEYTYQFTPISINYRTEIDKPSQ
10,90.2,E35 (designed binder) 10Fn3 domain: MGVSDVPRDLEVVAATPTSLLISWTPPGHQHQYYRITYGETGGNSPVQEFTVPGQVTTATISGLKPGVDYTITVYAVTDYYNPATHYYTYYTTPISINYRTEIDKPSQ
11,75.8,E33 (designed binder) 10Fn3 domain: MGVSDVPRDLEVVAATPTSLLISWASRKEVYQYYRITYGETGGNSPVQEFTVPGWLNTATISGLKPGVDYTITVYAVTDYMHVEYAEYPISINYRTEIDKPSQ
12,89.8,E38 (designed binder) 10Fn3 domain: MGVSDVPRDLEVVAATPTSLLISWNARTDAYQYYRITYGETGGNSPVQEFTVPRDLETATISGLKPGVDYTITVYAVTDYKPHADGPHTYQESPISINYRTEIDKPSQ
13,80.8,E37 (designed binder) 10Fn3 domain: MGVSDVPRDLEVVAATPTSLLISWERTSTHYQYYRITYGETGGNSPVQEFTVPGRVYTATISGLKPGVDYTITVYAVTDYYNPATHEYKYHQTPISINYRTEIDKPSQ
14,83.3,E44 (designed binder) 10Fn3 domain: MGVSDVPRDLEVVAATPTSLLISWDSEGPSYQYYRITYGETGGNSPVQEFTVPYAVYTATISGLKPGVDYTITVYAVTDYYNPRTHELFFQQYPISINYRTEIDKPSQ

# Biological target: T1, EGFR on the surface of human tumour …
# Experiment: cell-based or functional assay
# Remark: another data set of the same source
row,Binder,"% inhibition of EGFR phosphorylation at 100 nM binder, cell-based assay [%]"
1,E60 (designed binder) 10Fn3 domain: MGVSDVPRDLEVVAATPTSLLISWLQPLWRYQYYRITYGETGGNSPVQEFTVPGGLDTATISGLKPGVDYTITVYAVTDYKPHVDGPHAYHEYPISINYRTEIDKPSQ,100
2,E59 (designed binder) 10Fn3 domain: MGVSDVPRDLEVVAATPTSLLISWRARRLQYQYYRITYGETGGNSPVQEFTVPGMVTTATISGLKPGVDYTITVYAVTDFYNPATMEYTYQRTPISINYRTEIDKPSQ,76.3

# The next lines start with the values.
row,"% inhibition of EGFR phosphorylation at 100 nM binder, cell-based assay [%]",Binder
1,78.9,E62 (designed binder) 10Fn3 domain: MGVSDVPRDLEVVAATPTSLLISWCLDGQLYQYYRITYGETGGNSPVQEFTVPGSIVTATISGLKPGVDYTITVYAVTDWYNLATHEYNYRVTPISINYRTEIDKPSQ
2,75.3,E67 (designed binder) 10Fn3 domain: MGVSDVPRDLEVVAATPTSLLISWSSVMGLYQYYRITYGETGGNSPVQEFTVPYDVYTATISGLKPGVDYTITVYAVTDYYNPSTYEYKYNTTPISINYRTEIDKPSQ
3,75,E66 (designed binder) 10Fn3 domain: MGVSDVPRDLEVVAATPTSLLISWKSYGSAYQYYRITYGETGGNSPVQEFTVPGDLQTATISGLKPGVDYTITVYAITDYYNPDTHEYKYHVSPISINYRTEIDKPSQ
4,76.2,E63 (designed binder) 10Fn3 domain: MGVSDVPRDLEVVAATPTSLLISWDTSGASYQYYRITYGETGGNSPVQEFTVPYSVYTATISGLKPGVDYTITVYAVTDYYDPDSHYYNYNMVPISINYRTEIDKPSQ
5,80.7,E65 (designed binder) 10Fn3 domain: MGVSDVPRDLEVVATTPTSLLISWRPTSQVYQYYRITYGETGGNSPVQEFTVPYNVYTATISGLKPGVDYTITVYAVTDFFNYATHEYIYHTIPISINYRTEIDKPSQ
6,78.2,E64 (designed binder) 10Fn3 domain: MGVSDVPRDLEVVAATPTSLLISWDSGNGTYQYYRITYGETGGNSPVQEFTVPYRVYTATISGLKPGVDYTITVYAVTDYYNPATHEYTYELRPISINYRTEIDKPSQ
7,79.8,E61 (designed binder) 10Fn3 domain: MGVSDVPRDLEVVAATPTSLLISWDASQGNYQYYRITYGETGGNSPVQEFTVPGAVKTATISGLKPGVDYTITVYAVTDFFNPATHEYIYHTTPISINYRTEIDKPSQ
8,78.5,E68 (designed binder) 10Fn3 domain: MGVSDVPRDLEVVAATPTSLLISWKTEPGRHQYYRITYGETGGNSPVQEFTVPGGVRTATISGLKPGVDYTITVYAVTDWYNLVSHEYVYHTTPISINYRTEIDKPSQ
